# Patent US20170101451
# Tests used:
# [1] = system: stromal cell derived factor-1 (SDF-1alpha), unmutated
# [2] = system: SDF-1(L5P)
# [3] = system: SDF-1(L5W)
# [4] = system: SDF-1(L5E)
# [5] = system: T1, SDF-1 17AA
# T1 sequence: KPVSLSYRCPCRFFESH
# [6] = system: SDF-1(S4V)
# SDF-1(S4V), sequence (chain, as listed by the source): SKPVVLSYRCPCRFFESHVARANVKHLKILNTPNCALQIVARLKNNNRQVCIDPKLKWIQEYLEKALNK
# matrix metalloproteinase-2 (MMP-2), sequence (P08253 110-660): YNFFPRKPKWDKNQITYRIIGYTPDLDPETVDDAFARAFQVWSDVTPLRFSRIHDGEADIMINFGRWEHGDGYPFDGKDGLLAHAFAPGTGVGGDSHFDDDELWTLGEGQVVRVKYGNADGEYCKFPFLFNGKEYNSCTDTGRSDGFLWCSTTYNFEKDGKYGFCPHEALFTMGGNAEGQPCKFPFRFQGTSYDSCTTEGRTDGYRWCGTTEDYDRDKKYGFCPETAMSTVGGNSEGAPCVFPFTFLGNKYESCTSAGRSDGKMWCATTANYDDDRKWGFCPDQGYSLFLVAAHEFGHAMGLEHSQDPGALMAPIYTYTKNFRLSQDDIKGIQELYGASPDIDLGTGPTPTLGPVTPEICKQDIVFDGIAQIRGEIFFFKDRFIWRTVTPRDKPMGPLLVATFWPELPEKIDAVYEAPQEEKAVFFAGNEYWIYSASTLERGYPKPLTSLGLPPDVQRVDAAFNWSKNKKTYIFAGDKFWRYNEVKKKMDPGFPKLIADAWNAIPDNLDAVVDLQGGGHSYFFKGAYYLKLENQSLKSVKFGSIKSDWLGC
# stromal cell derived factor-1 (SDF-1alpha), unmutated, sequence (chain, as listed by the source, stated change not applied): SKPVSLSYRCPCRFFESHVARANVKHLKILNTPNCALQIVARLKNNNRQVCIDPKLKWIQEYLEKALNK
# SDF-1(L5P), sequence (chain, as listed by the source): as the sequence (chain, as listed by the source, stated change not applied) above, with L6P counted along it
# SDF-1(L5W), sequence (chain, as listed by the source): as the sequence (chain, as listed by the source, stated change not applied) above, with L6W counted along it
# SDF-1(L5E), sequence (chain, as listed by the source): as the sequence (chain, as listed by the source, stated change not applied) above, with L6E counted along it
substance,measurement,setting,value
matrix metalloproteinase-2 (MMP-2),cleavage by MMP-2: SDS-PAGE positional shift after one hour incubation,[1],"unlike SDF-1, the mutants did not undergo a positional shift indicative of cleavage"
same,cleavage by MMP-2: SDS-PAGE positional shift after one hour incubation,[2],"unlike SDF-1, the mutants did not undergo a positional shift indicative of cleavage"
same,cleavage by MMP-2: SDS-PAGE positional shift after one hour incubation,[3],"unlike SDF-1, the mutants did not undergo a positional shift indicative of cleavage"
same,cleavage by MMP-2: SDS-PAGE positional shift after one hour incubation,[4],"unlike SDF-1, the mutants did not undergo a positional shift indicative of cleavage"
same,"cleavage by MMP-2: SDS-PAGE, 2 nmole peptide incubated with MMP-2 for 1 h at RT",[5],showing cleavage of SDF-1 17AA
same,cleavage by MMP-2: SDS-PAGE positional shift after one hour incubation,[6],"unlike SDF-1, the mutants did not undergo a positional shift indicative of cleavage"
